By Kd is commonly meant the free concentration of one partner at which half of the binding sites on the other are occupied at equilibrium, for simple one-to-one binding. Lower therefore signals tighter binding.

Changes are numbered by the printed parent chain.

From patent US20260365759 (published 2026) come the findings set out here.

Sequences and labels used below:
T1: Pepsinogen C (PGC) (human)
T1 chain: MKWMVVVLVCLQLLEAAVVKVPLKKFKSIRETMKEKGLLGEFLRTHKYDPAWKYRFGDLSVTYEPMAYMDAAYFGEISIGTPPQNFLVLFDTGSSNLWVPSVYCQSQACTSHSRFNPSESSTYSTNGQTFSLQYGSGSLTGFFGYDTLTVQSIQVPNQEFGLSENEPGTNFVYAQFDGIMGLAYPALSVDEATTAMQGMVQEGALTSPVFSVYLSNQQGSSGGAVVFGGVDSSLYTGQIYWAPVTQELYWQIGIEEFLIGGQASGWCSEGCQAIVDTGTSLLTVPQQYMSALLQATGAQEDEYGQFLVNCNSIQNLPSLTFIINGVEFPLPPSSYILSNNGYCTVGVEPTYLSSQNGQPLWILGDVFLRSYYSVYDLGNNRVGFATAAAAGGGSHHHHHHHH

B1: mAb 27 (antibody, V domains shown)
VH: QIQLVQSGPELKKPGETVKISCKASGYTFTNYGMNWVKQAPGKGLKWIGWINTYTGDPTYADDFKGRFAFSLETSASNGYLQIDNLKKEDTATYFCARRDIFAMDYWGQGTSVTVSS
VL: DIQMTQTTSSLSASLGDRVTITCRASQDIMKYLHWYQQKPDGTIKLLFYYTSRLHSGVPSRFSGSGSGTDYSLTISNLEQEDIATYFCQQDVKYPWTFGGGTKLEIK
B2: mAb 123 (antibody, V domains shown)
VH: B1 VH with A24G, I48M, F68I, N78T, G79A, K88N
VL: B1 VL with I44V, F48I, V92I
B3: mAb 22 (antibody, V domains shown)
VH: B1 VH
VL: B1 VL with F48I
B4: mAb 75 (antibody, V domains shown)
VH: QIQLVQSGPELKKPGETVKISCKASGYTFTNYGMNWVKQAPGKGLKWMGLINTYTRGPTFADDFKGRFAFSVETSANTAYLQINNLKTEDTATYFCARRGEYYGSSYVDYWGQGTTLTVSS
VL: DIQMTQITSSLSASLGDRVTISCRASQDIMHFLNWYQQKPDGTVKLLIYYTSRLHSGVPSRFSGSGSGTDYSLTITNLEPEDIATYYCQQHSNLPPTFGGGTKLEIK
B5: mAb 11 (antibody, V domains shown)
VH: QVQLQQPGTELVKPGASVKLSCKASGYTFTNYWMHWVKQRPGQGLEWIGNINPFNGATNYNDNFKTKATLTVDKSSSTAYMHLSSLTSEDSAVYYCARYDYSKYYAMDYWGQGTSVTVSS
VL: ENVLTQSPAIMAASPGDKVTMTCSASSSINSAHFHWYQQKPGTSPKLWIYRTSNLASGVPARFSGRGSGTSYSLTISSMEAADAATYYCQQWSDYPWTFGGGTKLEIR

The target of this experiment is T1, Pepsinogen C (PGC). Briefly: SPR, 37C, order of magnitude only.
The molecule B1 gave an equilibrium dissociation constant (Kd) of around 0.1 nM. The value for B2 was around 0.1 nM. Take B3: the dissociation constant Kd was around 0.01 nM. Regarding B4, the Kd was around 0.1 nM.

B5 registered a Kd of around 0.1 nM.
